We go through 1 molecule from patent US20150056208A1 (VILARA, published 2015).

Where no end group is shown, it is not given here. [ ]: non-standard residue; d: D form. Cit = NC(=O)NCCC[C@H](N)C(=O)O

What all share (assay): SPR, peptide on CAP chip, 1:1 fit
In general terms: Surface plasmon resonance follows binding to a sensor surface in real time, without labels.

Assay [1] concerns the target T1, citrullinated human enolase peptide 1 (CEP-1) (human, cysteine pairing not given here; also: biotinylated form used in SPR, place not given here).
T1 construct: Coated directly on plates in ELISA; biotinylated and captured on a CAP chip in SPR; also called cit a-enolase; citrullinated alpha-enolase peptide 1
T1 peptide: CKIHA[Cit]EIFDS[Cit]GNPTVEC

Assay [2] concerns the target T2, citrullinated human fibrinogen residues 36-52 (cit-fib) (human, also: biotinylated, place not given here).
T2 construct: Biotinylated peptide on streptavidin plates (ELISA) or CAP chip (SPR); also called Fib36-52; cit fibrinogen
T2 peptide: NEEGFFSA[Cit]GHRPLDKK

The target in assay [3] is T3, citrullinated human vimentin residues 60-75 (cit-vim) (human, also: biotinylated, place not given here).
T3 construct: Biotinylated peptide on streptavidin plates (ELISA) or CAP chip (SPR); also called Vim60-75; cit vimentin
T3 peptide: VYAT[Cit]SSAV[Cit]L[Cit]SSVP

B1: antibody A09 (antibody)
chain 1: KSRTEIHSRVCGGHRAQLQGQLALGRVNGYGDSTLEGRVVVNAPTKVDNPNRLQPLPWGLADPHPVVTIIPNGASRDSAGEGQGLRRLHQSW
chain 2: GPLSDLINDDFGGFAWVLLVPGDKSITHNITAACSAGDGDRLSRRPRHGGRLSQHRL
With B1, the koff (usually a measure of how fast the partners let go of each other) was found to be 0.0429 s⁻¹ in assay [1], 0.0291 s⁻¹ in assay [2] and 0.0433 s⁻¹ in assay [3]. In addition, the Kd (as a rule, the equilibrium constant for the complex coming apart) in assay [2] came to 160 nM; in assay [3] it was 180 nM.
